Measured values published in patent US20200040085A1 (Chugai, published 2020).

T1: recombinant HLA-DQ8/gliadin peptide (human)
T1 chain 1: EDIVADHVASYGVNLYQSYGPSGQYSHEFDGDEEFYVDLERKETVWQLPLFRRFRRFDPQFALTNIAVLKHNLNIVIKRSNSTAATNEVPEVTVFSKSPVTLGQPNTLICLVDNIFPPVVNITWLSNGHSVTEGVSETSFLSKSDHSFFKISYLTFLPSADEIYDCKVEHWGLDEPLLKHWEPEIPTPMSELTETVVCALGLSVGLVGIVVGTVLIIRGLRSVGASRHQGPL
T1 chain 2: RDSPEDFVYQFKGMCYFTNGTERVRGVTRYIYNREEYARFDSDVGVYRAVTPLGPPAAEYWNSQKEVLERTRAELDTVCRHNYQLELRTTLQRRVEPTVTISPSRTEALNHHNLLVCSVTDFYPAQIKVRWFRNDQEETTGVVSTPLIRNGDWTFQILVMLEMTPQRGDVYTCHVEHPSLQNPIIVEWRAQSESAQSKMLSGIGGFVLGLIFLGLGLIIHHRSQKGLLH

T2: cynomolgus monkey MHC-DQ allele #1 (MHC DQA1*M2-1, MHC DQB1*M2-1) on Ba/F3 cells (cynomolgus monkey)
T2 construct: also called Ba/F3-cynoDQ C1; cynoDQ C1
T2 MHC II alpha: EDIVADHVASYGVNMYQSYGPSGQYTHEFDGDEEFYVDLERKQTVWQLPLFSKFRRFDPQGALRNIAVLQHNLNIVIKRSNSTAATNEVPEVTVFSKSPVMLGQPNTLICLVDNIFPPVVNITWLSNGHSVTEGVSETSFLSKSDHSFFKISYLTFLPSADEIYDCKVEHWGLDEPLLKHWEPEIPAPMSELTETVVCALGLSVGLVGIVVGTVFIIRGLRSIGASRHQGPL
T2 MHC II beta: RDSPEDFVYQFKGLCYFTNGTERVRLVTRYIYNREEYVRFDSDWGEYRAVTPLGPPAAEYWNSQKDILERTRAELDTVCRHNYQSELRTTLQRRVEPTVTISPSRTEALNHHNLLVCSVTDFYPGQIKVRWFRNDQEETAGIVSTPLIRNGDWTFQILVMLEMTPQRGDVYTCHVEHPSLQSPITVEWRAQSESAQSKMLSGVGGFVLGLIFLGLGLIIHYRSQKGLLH

T3: HLA-DQ8 (HLA-DQA1*0301, HLA-DQB1*0302) on Ba/F3 cells (human, UniProt P01909 24-216; P01920 33-230, limits assumed)
T3 construct: whole, on cells; Expressed from cDNA in mouse Ba/F3 cells; also called Ba/F3-HLA-DQ8
T3 MHC II alpha: not shown
T3 MHC II beta: not shown

B1: DQN0092 (antibody, human IgG1, kappa, V domains shown)
VH: QSVEESGGRLVTPGTPLTLTCTVSGFSLSSYYISWVRQAPGKGLEWIGIIYTDGVTDYPNWAKGRFTISKTSTTVDLKITSPTTEDTATYFCARDAASVYGCGYFDLWGPGTLVTVSS
VL: TFKLTQTPASVEAAVGGTVTIKCQASESNGNALAWYQQKPGQPPKLLIYRAFTLASGVPSRLKGSGSGTQFALTISDLECADAATYYCQTYYGSNTDFNAFGGGTKVEIKR
notes: Rabbit variable regions with F1332m and hkOMC constant regions; also called DQN0092hh
B2: DQN0089 (antibody, human IgG1, kappa, V domains shown)
VH: QEQVVEYGGDLVQPEGSLTLTCKASGLDFSSTYYMCWVRQAPGKGLEWIGCIYGGSSDSTYYASWAKGRFTISKTSPTTVTLQMTSLTAADTATHFCATYDYGAVGYDLWGPGTLVTVSS
VL: EVVVTQTPASVEVAVGGTVTIKCQASQNISPYLSWYQQKPGQPPKLLIYKASTLASGVSSRFKGSGSGTQFTLTISDLECADAATYYCQNNYGVSINYGHTFGGGTKVEIKR
B3: DQN0139 (antibody, human IgG1, kappa, V domains shown)
VH: QSLEESGGRLVTPGTALTLTCTVSGFSLSSYAMGWVRQAPGKGLEYIGWTSPGDSAYYASWTKGRFTISRTSTTVELKITSPTTEDTATYFCARDAAYIGHWAFNLWGPGTLVTVSS
VL: DVVMTQTPASVSAPVGGTVTINCQASESIYSNLAWYQQKPGQPPKLLIYGASTLESGVPSRVKGSGYGTQFTLTISDLECADAATYYCQQYYGSSSTAFTFGGGTKVEIKR
notes: also called DQN0139bb
B4: DQN0016 (antibody, human IgG1, kappa, V domains shown)
VH: QSLEESGGDLVKPGASLTLTCTASGFSFSSRYWMCWVRQAPGKGLEWIACIDAGSSGITYYASWANGRFTISKTSSTTVTLQMTSLTAADTATYFCARDAWSTTDGWNTFNLWGPGTLVTVSS
VL: DVVMTQTPASVSAAVGGTVTIKCQASQSIGSNLNWYQQKPGQSPKLLIYSASTLASGVPSRFKGSGSGTEYTLTISNLECADAATYYCQSYYYTGSSAVNNFGGGTKVEIKR
notes: Rabbit B-cell derived variable regions recombined with F1332m heavy and hkOMC light constant regions; expressed in FreeStyle 293-F cells; also called DQN0016cc
B5: DQN0157 (antibody, human IgG1, kappa, V domains shown)
VH: QSLEESGGDLVKPGASLTLTCTASGFSFSSSYYMCWVRQAPGKGLEWIACIYTGSSGSTYYPSWAKGRFTISKTSSTTVTLQMTSLTAADTATYFCARVRAGSGYYYFNLWGPGTLVTVSS
VL: DIVMTQTPSSVSAAVGGTVTIKCQASQTIYSGLAWYQQKPGQPPKLLIYDASDLASGVPSRFSGSGSGTEFTLAISGVQCDDAATYYCHGDYYGGSGTFFWTFGGGTKVEIKR
notes: Rabbit variable regions with F1332m and hkOMC constant regions; also called DQN0157cc
B6: DQN0177 (antibody, human IgG1, kappa, V domains shown)
VH: QSVEESGGRLVTPGTPLTLTCTVSGFSLSSYAMSWVRQAPGKGLEWIGVISYSGRTYDASWAKGRFTISKTSTTVDLKITSPTTEDTATYFCARVGDSYGYAYATVIFTYHFNLWGPGTLVTVSS
VL: DPVLTQTPSSASEPVGGTVTIKCQASESISSSLAWYQQKPGQRPKLLIYDASKLASGVPSRFKGSGSGTEFTLTISGVQCDDAATYYCQHGLSSGSTNRCAFGGGTKVEIKR
notes: also called DQN0177aa
B7: DQN0100 (antibody, human IgG1, kappa, V domains shown)
VH: QQQLEESGGGLVKPGASLTLTCKGSGFSFTSGYWICWVRQAPGKGLEWIGCIYTGSSGSTYYASWAKGRFTISRSSTTVTLQMTSLTVADTATYFCAGDPSGASSGWDNLWGPGTLVTVSS
VL: AFELTQTPSSVEAAVGGTVTIKCQASQTIVSWLAWYQQKPGQRPKLLILYASNLASGVSSRFRGSGSGTDYTLTISDLECDDAATYYCQSYYFSTSSPDMYAFGGGTKVEIKR
notes: Rabbit variable regions with F1332m and hkOMC constant regions; also called DQN0100aa

Experiments:
[1] = molecular target: T1, recombinant HLA-DQ8/gliadin peptide; assay: SPR Biacore T200, 37 C, pH 7.4; antibody captured by anti-human Fc, pMHC injected; 1:1 model
Protocol: The affinity of the anti-HLA-DQ2.5/8 antibodies for binding to human HLA-DQ2.5/gliadin peptide and HLA-DQ8/gliadin peptide at pH 7.4 was determined at 37 degrees C. using the Biacore T200 instrument (GE Healthcare). Anti-human Fc (GE Healthcare) was immobilized onto all flow cells of a CM4 sensor chip using an amine coupling kit (GE Healthcare). All antibodies and analytes were prepared in ACES, pH 7.4 containing 20 mM ACES, 150 mM NaCl, 0.05% Tween 20, 0.005% NaN₃. Each antibody was captured onto the sensor surface by anti-human Fc. Antibody capture levels were aimed at 200 resonance units (RUs). A recombinant human HLA-DQ2.5/gliadin peptide was injected at […] prepared by four-fold serial dilution, followed by dissociation, whereas a recombinant human HLA-DQ8/gliadin peptide was injected at 50 to 200 nM prepared by four-fold serial dilution, followed by dissociation. The sensor surface was regenerated each cycle with 3M MgCl₂. Binding affinity was determined by processing and fitting the data to a 1:1 binding model using the Biacore T200 Evaluation software, version 2.0 (GE Healthcare). A commercially available antibody (SPV-L3) was tested as comparison.

[2] = molecular target: T4, HLA-DQ2.5 (HLA-DQA1*0501, HLA-DQB1*0201) on Ba/F3 cells (human, UniProt P01909 24-216, limits assumed); assay: FACS on Ba/F3-HLA-DQ2.5 cells
T4 construct: whole, on cells; Expressed from cDNA in mouse Ba/F3 cells; also called Ba/F3-HLA-DQ2.5
Protocol: (§1) Binding of antiHLA-DQ2.5/8 antibodies to HLA-DQ2.5-expressing Ba/F3 cells (Ba/F3-HLA-DQ2.5), Ba/F3-HLA-DQ8, Ba/F3-HLA-DR, Ba/F3-HLA-DP, Ba/F3-cynoDQ C1, Ba/F3-cynoDQ C2, and Ba/F3-cynoDQ C3 was tested.
(§2) Anti-HLA-DQ2.5/8 antibodies were incubated with each cell line for 30 minutes at room temperature and washed with FACS buffer (2% FBS, 2 mM EDTA in PBS). Goat F(ab′)2 anti-Human IgG, Mouse ads-PE (Southern Biotech, Cat. 2043-09) was then added and incubated for 20 minutes at 4 degrees C. and washed with FACS buffer. Data acquisition was performed on an FACS Verse (Becton Dickinson), followed by analysis using the FlowJo software (Tree Star) and the GraphPad Prism software (GraphPad).

[3] = molecular target: T2, cynomolgus monkey MHC-DQ allele #1 (MHC …); assay: FACS on Ba/F3-cynoDQ C1 cells, PE-labelled anti-human IgG secondary [panel Ba/F3-cynoDQ C1]
Protocol: as §1, §2

[4] = molecular target: T3, HLA-DQ8 (HLA-DQA1*0301, HLA-DQB1*0302) …; assay: FACS on Ba/F3-HLA-DQ8 cells
Protocol: as §1, §2

[5] = molecular target: complex of the invariant chain and HLA-DQ on Raji cells (UniProt P04233 1-296); assay: cell-based or functional assay
Chain of complex of the invariant chain and HLA-DQ on Raji cells (P04233 whole entry, change not shown, one chain of several): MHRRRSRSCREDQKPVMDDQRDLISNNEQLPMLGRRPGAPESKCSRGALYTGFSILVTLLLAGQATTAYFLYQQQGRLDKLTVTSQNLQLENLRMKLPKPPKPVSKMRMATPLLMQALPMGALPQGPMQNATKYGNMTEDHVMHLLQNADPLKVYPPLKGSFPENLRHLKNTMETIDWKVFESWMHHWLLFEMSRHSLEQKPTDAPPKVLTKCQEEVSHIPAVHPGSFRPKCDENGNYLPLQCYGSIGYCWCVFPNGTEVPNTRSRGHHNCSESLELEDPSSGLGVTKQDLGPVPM

[6] = molecular target: T1, recombinant HLA-DQ8/gliadin peptide; assay: bead-based flow cytometry: HLA-DQ8/gliadin peptide on beads, antibody titrated, blocking of SP3.4 TCR-PE binding [panel DQ8/SP3.4 TCR neutralization]
Protocol: Streptavidin-coated yellow particles (Spherotech, SVFB-2552-6K) were incubated in blocking buffer (2% BSA in PBS) for 30 minutes with shaking at room temperature. After centrifugation and aspiration of the supernatant, 0.167 micro g/mL of soluble […] was then added as 1.2E+4 beads/micro L solution and immobilized for 60 minutes with shaking at room temperature in 96 well plates (Sigma Aldrich, Cat No. M2686). […] The final concentration of HLA-DQ8/gliadin peptide was 0.075 micro g/mL. The plates were washed with blocking buffer, and serially diluted anti-HLA-DQ2.5/8 antibodies were added and incubated for 60 minutes with shaking at room temperature. […] Data acquisition was performed on LSR Fortessa (Becton Dickinson), followed by analysis using the FlowJo software (Tree Star) and the GraphPad Prism software (GraphPad).

Binder | Kd [1] [nM] | koff [1] [s⁻¹] | kon [1] [M⁻¹ s⁻¹] | binding result [2] | binding result [3] | binding result [4] | ratio [MFI (PE/FITC) without Cytochalasin D, Dynasore]/[MFI (PE/FITC) with Cytochalasin D, Dynasore] on Raji cells (invariant chain-mediated internalization) [5] | IC50 (read off the curve) [6] [µg/mL]
B1 | 7.28 | 0.00122 | 168000 | binds | no binding | binds | – | –
B2 | – | – | – | – | – | – | ~3 | –
B3 | 11.3 | – | – | – | – | – | – | ~0.3
B4 | 151 | – | – | – | – | – | – | ~0.2
B5 | 22.6 | 0.0033 | 146000 | – | no binding | – | – | ~0.1
B6 | 3.67 | 0.00137 | 374000 | – | – | – | – | –
B7 | 1.94 | 0.000458 | 236000 | – | – | – | – | ~0.1
